From paper PMC13635753, “Mechanism of NanR transcriptional activation of sialic acid metabolism in Streptococcus pneumoniae” (Nucleic Acids Research, 2025)
Values joined by “and” are separate entries in the source; they are usually repeats but may differ in a detail not shown here. Equal values may be shown once.

Assays:
[1] = target: the molecule itself; test: SAXS with in-line size exclusion chromatography; SpNanR without N-acetylmannosamine-6-phosphate
[2] = target: the molecule itself; test: AUC; sedimentation velocity, SpNanR 0.27–153.5 μM with 2 mM N-acetylmannosamine-6-phosphate, 20 mM Tris–HCl pH 8.0, 300 mM NaCl, 20°C, 42 000 rpm; constant of: tetramer to dimers
[3] = target: the molecule itself; test: AUC; sedimentation velocity, SpNanR 4.3–227.7 μM without N-acetylmannosamine-6-phosphate, 20 mM Tris–HCl pH 8.0, 300 mM NaCl, 20°C, 42 000 rpm; weight-averaged s fitted to a dimer–tetramer self-association model; constant of: tetramer to dimers
[4] = target: the molecule itself; test: AUC; sedimentation velocity of SpNanR variants and wild type at 15 μM, with N-acetylmannosamine-6-phosphate
[5] = target: the molecule itself; test: AUC; sedimentation velocity of SpNanR variants and wild type at 15 μM, without N-acetylmannosamine-6-phosphate
[6] = target: T1, SpNanR (Streptococcus pneumoniae, UniProt A0A0H2ZPE9 1-283); test: MST; range over three sites; MST: 20 mM Tris-HCl pH 8.0, 300 mM NaCl, 0.05% Tween-20, 20 C, 20 nM FAM-DNA; AUC: 50 nM FAM-DNA, 0.019-5 uM SpNanR, buffer not in the material; conditions: protein: recombinant; tags: none; chain copies: 2; label: 5'-FAM on sense strand
[7] = target: T1, SpNanR; test: MST; protein up to 5000 nM; MST: 20 mM Tris-HCl pH 8.0, 300 mM NaCl, 0.05% Tween-20, 20 C, 20 nM FAM-DNA; AUC: 50 nM FAM-DNA, 0.019-5 uM SpNanR, buffer not in the material; conditions: protein: recombinant; tags: none; chain copies: 2; label: 5'-FAM on sense strand
[8] = target: SpNanR R56A (Streptococcus pneumoniae, UniProt A0A0H2ZPE9 1-283, R56A); test: as above; conditions: protein: recombinant; tags: none; chain copies: 2; label: 5'-FAM on sense strand
[9] = target: SpNanR T18A (Streptococcus pneumoniae, UniProt A0A0H2ZPE9 1-283, T18A); test: as above; conditions: protein: recombinant; tags: none; chain copies: 2; label: 5'-FAM on sense strand
[10] = target: SpNanR R67A (Streptococcus pneumoniae, UniProt A0A0H2ZPE9 1-283, R67A); test: as above; conditions: protein: recombinant; tags: none; chain copies: 2; label: 5'-FAM on sense strand
[11] = target: T1, SpNanR; test: fluorescence-detection AUC (sedimentation velocity); no effector; Hill n 2.3; MST: 20 mM Tris-HCl pH 8.0, 300 mM NaCl, 0.05% Tween-20, 20 C, 20 nM FAM-DNA; AUC: 50 nM FAM-DNA, 0.019-5 uM SpNanR, buffer not in the material; conditions: protein: recombinant; tags: none; chain copies: 2; label: 5'-FAM on sense strand

B1: Streptococcus pneumoniae NanR (SpNanR), wild type (natural protein, UniProt A0A0H2ZPE9 1-283, looked up)
chain: MDKPDIATIIDSHFEEMTDLEQEIARYFLQAETITDDLSSQQVTQKLHISQAALTRFAKKCGFTGYREFIFQYQHQAENQANQVSKHSPLTKRVLRSYSNMREQTQDLIDEIQLERIAQLIEDAERIYFFGTGSSGLVAREMKLRFMRLGVVCEALTDQDGFAWTTSIMDENCLVLGFSLSGSTPSILDSLLDAKEMGAKTVLFTSVPNKNSQTYTETVLVATHSQPSYIQRISAQLPMLFFIDLIYAYFLEINRESKEKIFNSYWENKKLNGYRRQKRVRKS
notes: RpiR family transcriptional regulator NanR of Streptococcus pneumoniae, recombinant full length; intact mass 32 611 Da; Self-associates between dimer and tetramer; cloned into pET30ΔSE; no tag; also called SpNanR^WT; apo-SpNanR
stoichiometry N [1]: 4 and 2 | Kd [2]: < 0.2 µM | Kd [3]: 97 µM

B2: SpNanR^D160A (natural protein)
chain: MDKPDIATIIDSHFEEMTDLEQEIARYFLQAETITDDLSSQQVTQKLHISQAALTRFAKKCGFTGYREFIFQYQHQAENQANQVSKHSPLTKRVLRSYSNMREQTQDLIDEIQLERIAQLIEDAERIYFFGTGSSGLVAREMKLRFMRLGVVCEALTDQAGFAWTTSIMDENCLVLGFSLSGSTPSILDSLLDAKEMGAKTVLFTSVPNKNSQTYTETVLVATHSQPSYIQRISAQLPMLFFIDLIYAYFLEINRESKEKIFNSYWENKKLNGYRRQKRVRKS
notes: NanR of Streptococcus pneumoniae with D160A; Variant of the full-length recombinant SpNanR; source: E. coli BL21(DE3), recombinant
stoichiometry N [4]: 4 | stoichiometry N [5]: 2

B3: SpNanR^R148A (natural protein)
chain: MDKPDIATIIDSHFEEMTDLEQEIARYFLQAETITDDLSSQQVTQKLHISQAALTRFAKKCGFTGYREFIFQYQHQAENQANQVSKHSPLTKRVLRSYSNMREQTQDLIDEIQLERIAQLIEDAERIYFFGTGSSGLVAREMKLRFMALGVVCEALTDQDGFAWTTSIMDENCLVLGFSLSGSTPSILDSLLDAKEMGAKTVLFTSVPNKNSQTYTETVLVATHSQPSYIQRISAQLPMLFFIDLIYAYFLEINRESKEKIFNSYWENKKLNGYRRQKRVRKS
notes: NanR of Streptococcus pneumoniae with R148A; Variant of the full-length recombinant SpNanR; source: E. coli BL21(DE3), recombinant
stoichiometry N [5]: 2

B4: nanA recognition sequence (site 1) (dsDNA)
DNA 1: TCTGAAACTACTTTCAAA
DNA 2: TTTGAAAGTAGTTTCAGA
Kd [6]: ~0.603 µM

B5: nanE A10C (dsDNA)
DNA 1: TCTGAAAGTCCTTTTAGA
DNA 2: TCTAAAAGGACTTTCAGA
binding result [7]: no binding

B6: cryptic site downstream of siaA operon (site 4) (dsDNA)
DNA 1: TCTGAAACTACTTTCAGA
DNA 2: TCTGAAAGTAGTTTCAGA
Kd [6]: ~0.603 µM

B7: nanE recognition sequence (site 2), FAM (dsDNA)
DNA 1: TCTGAAAGTACTTTTAGA
DNA 2: TCTAAAAGTACTTTCAGA
binding result [8]: no binding | binding result [9]: no binding | binding result [10]: no binding | Kd [6]: ~0.603 µM | Kd [11]: 0.476 ± 0.075 µM

B8: nanE G4T (dsDNA)
DNA 1: TCTTAAAGTACTTTTAGA
DNA 2: TCTAAAAGTACTTTAAGA
binding result [7]: no binding
